Laboratory results from the supplement of paper PMC10201428.
± gives the standard deviation of the averaged measurements.

Experiments:
[1] = system: VchCAST RNA-guided transposition machinery (E. coli BL21(DE3) host, lacZ target); test: relative integration efficiency (T-LR orientation) vs wild-type transposon end (log2 (normalized fold change)); transposon end mutated: right end (5 bp flank + 75 bp right end); higher = more efficient transposition
In short: (§1)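 Pools of 1549 left-end or 1849 right-end barcoded transposon variants were cloned into a pUC57 mini-transposon donor and co-transformed into E. coli BL21(DE3) with a T7-driven effector plasmid carrying a CRISPR array, tniQ-cas8-cas7-cas6 and tnsA-tnsB-tnsC. Plating used 0.1 mM IPTG at 37°C for 18 h, and input plasmids and genomic integration junctions were PCR-amplified for Illumina sequencing, with two biological output replicates and four reference barcodes. Relative integration efficiency is the log-transformed fold change of output over input barcode abundance, normalised to the reference barcodes.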

[2] = system: VchCAST RNA-guided transposition machinery (E. coli BL21(DE3) host, lacZ target); test: relative integration efficiency (T-RL orientation) vs wild-type transposon end (log2 (normalized fold change)); transposon end mutated: right end (5 bp flank + 75 bp right end); higher = more efficient transposition
In short: as §1

Sequence	relative integration efficiency (log2) [1]	relative integration efficiency (log2) [2]
ACATTTGTTGATACAACCATATATTGATATCTCCACCCATAAATTGATATTGCTCACACCCATAAATTGATAATTACTCTGATCATAGTCAGACCAACATTGCTACGACCCGTATTCGCACCGACAC	0.429 ± 0.13	-0.617 ± 0.12
ACATTTGTTGATACAACCATAAAATGATAATTACACCCATAAATTGATCCTTATCACACCCATAAATTGATATTGCCTCTGATCATAGTCAGACCAACATTGCTACGACCCGTATTCGCACCGACAC	-0.418 ± 0.47	-0.973 ± 0.3
ACATTTGTTGATACACCCATAAATTGATAATTACAACCATATATTGATATCTCTCAGTGGGTATTTAACTATAACGCTCTGATCATAGTCAGACCAACATTGCTACGACCCGTATTCGCACCGACAC	2.39 ± 0.18	-1.17 ± 0.28
ACATTTGTTGATACAACCATAAAATGATAATTACACCCATAAATTGATAATTATCACACCCATAAATTGATATTGCCTCTGATAGTACTGCGCGCCTGAATTCATCGTTAAATCGTCGCACCGACAC	0.249 ± 0.17	0.0579 ± 0.2
ACATTTGTTGATACACCCATAAATTGATATTGCCAACCATATATTGATATCTCTCACAACCATATATTGATATCTCCTCTGATCATAGTCAGACCAACATTGCTACGACCCGTATTCGCACCGACAC	-0.214 ± 0.48	-1.29 ± 0.34
ACATTTGTTGATACAACCATAAAAGGATAATTACCCCCATAAATTGATAATTATCACACCCCATTTAACTATAACGCTCTGATCATAGTCAGACCAACATTGCTACGACCCGTATTCGCACCGACAC	1.61 ± 0.2	-1.46 ± 0.44
ACATTTGTTGATACAACCATAAAACGATAATTACACCCATAAATTGATCATTATCACACCCAATTTAACTATAACGCTCTGATCATAGTCAGACCAACATTGCTACGACCCGTATTCGCACCGACAC	1.86 ± 0.099	-1.68 ± 0.16
ACATTTGTTGATACAACCATAAAATGATAATTACACCCATAAATTGATAATTATCACACCCATAAATTGATATTGCCTAGGATCATAGTCAGACCAACATTGCTACGACCCGTATTCGCACCGACAC	0.23 ± 0.42	0.0464 ± 0.076
ACATTTGTTGATACAACCATAAAATGATATTTACACCCATAAATTGATATTTATCACACCCATAAATTGATAATGCCTCTGATCATAGTCAGACCAACATTGCTACGACCCGTATTCGCACCGACAC	-0.16 ± 0.048	-0.257 ± 0.19
ACATTTGTTCATCCAACCATAAAATGATAATTACACCCATAAATTCATCATTATCACACCCAATTTAACTATAACGCTCTGATCATAGTCAGACCAACATTGCTACGACCCGTATTCGCACCGACAC	-0.745 ± 0.19	-2.92 ± 0.45
ACATTTGTTGATACAACCATAAAATGATAATTACAACCATAAGTTGATATTTTTCACAACCATAAAATGATAATTACTCTGATCATAGTCAGACCAACATTGCTACGACCCGTATTCGCACCGACAC	-0.0321 ± 0.022	-0.308 ± 0.21
ACATTTGTGGATACAACCCTAAAATGATAATTACACCCATAAATGGATCATTATCACCCCCAATTTAACTATAACGCTCTGATCATAGTCAGACCAACATTGCTACGACCCGTATTCGCACCGACAC	-1.88 ± 0.26	-4.36 ± 0.35
ACATTTGTTGATACAACCATAAGTTGATATTTTCACCCATAAATTGATATTGCTCACACCCATAAATTGATAATTACTCTGATCATAGTCAGACCAACATTGCTACGACCCGTATTCGCACCGACAC	0.36 ± 0.054	-0.658 ± 0.16
ACATTTGTTGATACACCCATAAATTGATAATTACAACCATAAAATGATAATTATCACAACCATAAAGTGATATTTACTCTGATCATAGTCAGACCAACATTGCTACGACCCGTATTCGCACCGACAC	-0.912 ± 0.79	-0.736 ± 0.32
ACATAAGTTGATACAACCATAAAATGATAATTACACCCATAAATTGATAATTATCACACCCATAAATTGATATTGCCTCTGATCATAGTCAGACCAACATTGCTACGACCCGTATTCGCACCGACAC	-4.25 ± 0.29	-6.621 ± 0.045
ACATTTGTTGATACAACCATAAATACTTAATTACACCCATAAATTGATAATTATCACACCCATAAATTGATATTGCCTCTGATCATAGTCAGACCAACATTGCTACGACCCGTATTCGCACCGACAC	-2.42 ± 0.21	-2.25 ± 0.17
ACATTTGTCGATCCAACCATAAAATGATAATTACACCCATAAATTGATCATTATCACACCCAATTTAACTATAACGCTCTGATCATAGTCAGACCAACATTGCTACGACCCGTATTCGCACCGACAC	2.167 ± 0.0082	-1.61 ± 0.25
ACATTTGTTGATACAACCATAAAATGATAATTACACCCATAAATTGATAATTATCACAAAACTAAATTGATATTGCCTCTGATCATAGTCAGACCAACATTGCTACGACCCGTATTCGCACCGACAC	2.45 ± 0.22	-0.531 ± 0.15

Sequence	relative integration efficiency (log2) [1]	relative integration efficiency (log2) [2]
ACATTTGTCGATACAACCATAAAACGATAATTACACCCATAAATTCATCATTATCACACCCAATTTAACTATAACGCTCTGATCATAGTCAGACCAACATTGCTACGACCCGTATTCGCACCGACAC	1.48 ± 0.17	-2.2 ± 0.19
ACATTTGTTGATAACACCATAAAATGATAATTACACCCATAAATTGATAATTATCACACCCATAAATTGATATTGCCTCTGATCATAGTCAGACCAACATTGCTACGACCCGTATTCGCACCGACAC	-0.747 ± 0.13	-0.41 ± 0.018
ACATTTGTTGATACAACCATAAGTTGATATTTTCACCCATAAATTGATATTGCTCAGTGGGTATTTAACTATAACGCTCTGATCATAGTCAGACCAACATTGCTACGACCCGTATTCGCACCGACAC	2.31 ± 0.065	-1.19 ± 0.12
ACATTTGTTGATACAACCATAAAATGATAATTACAACCATAAGTTGATATTTTTCACAACCATAAAGTGATATTTACTCTGATCATAGTCAGACCAACATTGCTACGACCCGTATTCGCACCGACAC	0.666 ± 0.12	0.274 ± 0.2
ACATTTGTTGATCCAACCATAAAATGATAATTACACCCATAAATTCATAATTATCACACCCAATTTAACTATAACGCTCTGATCATAGTCAGACCAACATTGCTACGACCCGTATTCGCACCGACAC	0.916 ± 0.17	-2.07 ± 0.2
ACATTTGTTGATACAACCATAAAATGATAATTAATAATTATTTATAATCACCCATAAATTGATAATTATCACACCCATAAATTGATATTGCCTCTGATCATAGTCAGACCAACATTGCTACGACCCG	0.877 ± 0.18	-2.92 ± 0.3
ACATTTGTTGATACAACCATAAAATGATAATTACACCCATAAATTGATAATTATCACACCCATAAATTGATATTGCCTCTGATCAGGAATTGTGAGCGGATAACAATTTAGTCAGACGCACCGACAC	0.397 ± 0.067	0.138 ± 0.16
ACATTGGTTGATACAACCATAAAATGATAATTACACCCATAAATTCATAATTATCACACCCAATTTAACTATAACGCTCTGATCATAGTCAGACCAACATTGCTACGACCCGTATTCGCACCGACAC	-5.532 ± 0.042	-6.39 ± 0.064
ACATTTGTCGATACAACCATAAAATGATAATTACACCCATAAATGGATAATTATCACACCCAATTTAACTATAACGCTCTGATCATAGTCAGACCAACATTGCTACGACCCGTATTCGCACCGACAC	1.69 ± 0.097	-1.05 ± 0.18
ACATTTGTTGATACAACCATAAAATGATAATTACACCCATAAATTGATTTAAATCACACCCATAAATTGATATTGCCTCTGATCATAGTCAGACCAACATTGCTACGACCCGTATTCGCACCGACAC	-0.261 ± 0.15	-0.801 ± 0.11
ACATTTGTTGATACAACCATAAGTTGATATTTTCAACCATAAAGTGATATTTATCACAACCATAAAATGATAATTACTCTGATCATAGTCAGACCAACATTGCTACGACCCGTATTCGCACCGACAC	-0.435 ± 0.24	-0.0697 ± 0.03
ACATTTGTTGATACACAACTAAAATGATAATTACACCCATAAATTGATAATTATCACACCCATAAATTGATATTGCCTCTGATCATAGTCAGACCAACATTGCTACGACCCGTATTCGCACCGACAC	-3.43 ± 1.4	-3.13 ± 0.19
ACATTTGTTCATCCAACCATAAAATGATAATTACACCCATAAATTGATAATTATCACACCCAATTTAACTATAACGCTCTGATCATAGTCAGACCAACATTGCTACGACCCGTATTCGCACCGACAC	0.451 ± 0.23	-1.42 ± 0.29
CAAAATGTAAAAACAACCATAAAATGATAATTAGAAACCATACGCTGAAATAAAAACAACCATACCTTGAAATTGCTTATAAAGTGTACAACACTTGAGAAAGTTTACTACAGGTATGCACCGACAC	2.48 ± 0.26	-0.449 ± 0.47
ACATTTGTCGATACAACCATAAAATGATAATTACACCCATAAATTCATAATTATCACCCCCAATTTAACTATAACGCTCTGATCATAGTCAGACCAACATTGCTACGACCCGTATTCGCACCGACAC	1.18 ± 0.19	-1.83 ± 0.51
ACATTTGTTGATACAACCATTAAATGATAATTACACCCAAAAATTGATAATTATCACACCCAATTTAACTATAACGCTCTGATCATAGTCAGACCAACATTGCTACGACCCGTATTCGCACCGACAC	2.03 ± 0.09	-0.982 ± 0.24
ACATTAGTCGATACAACCATAAAATGATAATTACACCCATAAATTGATCATTATCACACCCAATTTAACTATAACGCTCTGATCATAGTCAGACCAACATTGCTACGACCCGTATTCGCACCGACAC	-3.34 ± 1	-7.26 ± 0.69
